Target: the molecule itself
Assay: SEC

B1: recombinant FOG-3 (sizing column, Figure S2A) (domain or fragment)
chain: MYTEVRELVNFVCRYLFGHIPRRPVGIFGAELGNYLVSHFSSTWDVHHPKNGEMKRMINTTTSLCFASSAEEAGVPPSDVLRLLPTNMIIFANPGHVFVRLSENGIETPIWIGDVNCDENYQSVPEYVVRTAAIRAE
B1 was tested, and the “stoichiometry N” value was 2.

Reference: PMC6066285 (Cell reports, 2018)
